According to US20190177370A1 (TOKYO UNIVERSITY OF PHARMACY AND LIFE SCIENCES, published 2019):
Square brackets hold non-standard residues; d marks the D form. Primed or numbered codes have the meaning given here. * marks the point of attachment. m‑dPEG(4) = m-dPEG(4) acid, coupled to Acp, with Acp forms R^111 of Formula (4); Propanoyl(3,3-Ph2) = O=C(CC(c1ccccc1)c1ccccc1)*; 2Nal = N[C@@H](Cc1ccc2ccccc2c1)C(=O)O; Chg = N[C@H](C(=O)O)C1CCCCC1; Ahx = NCCCCCC(=O)O

T1: myostatin (UniProt O14793 267-375, limits assumed)
T1 sequence (looked up): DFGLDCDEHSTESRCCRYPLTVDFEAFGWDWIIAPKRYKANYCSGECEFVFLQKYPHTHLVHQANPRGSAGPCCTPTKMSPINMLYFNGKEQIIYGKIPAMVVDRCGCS


Molecular target: T1, myostatin
Experiment: cell-based or functional assay

| Binder | myostatin inhibitory activity at 0.3 µM (luciferase reporter assay) | myostatin inhibitory activity at 1 µM (luciferase reporter assay) |
| --- | --- | --- |
| H-WYIRWIR[Chg]PIWSR[Chg]RL-NH2 (SMILES CC[C@H](C)[C@H](NC(=O)[C@H](Cc1ccc(O)cc1)NC(=O)[C@@H](N)Cc1c[nH]c2ccccc12)C(=O)N[C@@H](CCCNC(=N)N)C(=O)N[C@@H](Cc1c[nH]c2ccccc12)C(=O)N[C@H](C(=O)N[C@@H](CCCNC(=N)N)C(=O)N[C@H](C(=O)N1CCC[C@H]1C(=O)N[C@H](C(=O)N[C@@H](Cc1c[nH]c2ccccc12)C(=O)N[C@@H](CO)C(=O)N[C@@H](CCCNC(=N)N)C(=O)N[C@H](C(=O)N[C@@H](CCCNC(=N)N)C(=O)N[C@@H](CC(C)C)C(N)=O)C1CCCCC1)[C@@H](C)CC)C1CCCCC1)[C@@H](C)CC) [nPDM-76] | ≥ 40 % inhibition | – |
| {m‑dPEG(4)-Ahx}-YYIEWIKIQIISKLRL-NH2 [PDM-29] | – | ≥ 40 % inhibition |
| H-AWYIRWIKIQIWSKLRL-NH2 [A-nPDM-55/E31R] | ≥ 40 % inhibition | – |
| H-WYIRWIK[Chg]QIWSK[Chg]RL-NH2 (SMILES CC[C@H](C)[C@H](NC(=O)[C@H](CCC(N)=O)NC(=O)[C@@H](NC(=O)[C@H](CCCCN)NC(=O)[C@@H](NC(=O)[C@H](Cc1c[nH]c2ccccc12)NC(=O)[C@H](CCCNC(=N)N)NC(=O)[C@@H](NC(=O)[C@H](Cc1ccc(O)cc1)NC(=O)[C@@H](N)Cc1c[nH]c2ccccc12)[C@@H](C)CC)[C@@H](C)CC)C1CCCCC1)C(=O)N[C@@H](Cc1c[nH]c2ccccc12)C(=O)N[C@@H](CO)C(=O)N[C@@H](CCCCN)C(=O)N[C@H](C(=O)N[C@@H](CCCNC(=N)N)C(=O)N[C@@H](CC(C)C)C(N)=O)C1CCCCC1) [nPDM-66] | ≥ 40 % inhibition | ≥ 40 % inhibition |
| {Propanoyl(3,3-Ph2)}-YIRWIR[Chg]QIWSR[Chg]PL-NH2 (SMILES CC[C@H](C)[C@H](NC(=O)[C@H](Cc1ccc(O)cc1)NC(=O)CC(c1ccccc1)c1ccccc1)C(=O)N[C@@H](CCCNC(=N)N)C(=O)N[C@@H](Cc1c[nH]c2ccccc12)C(=O)N[C@H](C(=O)N[C@@H](CCCNC(=N)N)C(=O)N[C@H](C(=O)N[C@@H](CCC(N)=O)C(=O)N[C@H](C(=O)N[C@@H](Cc1c[nH]c2ccccc12)C(=O)N[C@@H](CO)C(=O)N[C@@H](CCCNC(=N)N)C(=O)N[C@H](C(=O)N1CCC[C@H]1C(=O)N[C@@H](CC(C)C)C(N)=O)C1CCCCC1)[C@@H](C)CC)C1CCCCC1)[C@@H](C)CC) [3,3-diphenylpropionyl-nPDM-85] | ≥ 40 % inhibition | – |
| H-WYIRWIR[Chg]QIWSR[Chg]PL-NH2 [nPDM-73] | ≥ 40 % inhibition | – |
| {m‑dPEG(4)-Ahx}-WWIEWIKIQIISKLRL-NH2 [PDM-30] | – | ≥ 40 % inhibition |
| H-WYIRWIP[Chg]QIWSR[Chg]RL-NH2 (SMILES CC[C@H](C)[C@H](NC(=O)[C@H](CCC(N)=O)NC(=O)[C@@H](NC(=O)[C@@H]1CCCN1C(=O)[C@@H](NC(=O)[C@H](Cc1c[nH]c2ccccc12)NC(=O)[C@H](CCCNC(=N)N)NC(=O)[C@@H](NC(=O)[C@H](Cc1ccc(O)cc1)NC(=O)[C@@H](N)Cc1c[nH]c2ccccc12)[C@@H](C)CC)[C@@H](C)CC)C1CCCCC1)C(=O)N[C@@H](Cc1c[nH]c2ccccc12)C(=O)N[C@@H](CO)C(=O)N[C@@H](CCCNC(=N)N)C(=O)N[C@H](C(=O)N[C@@H](CCCNC(=N)N)C(=O)N[C@@H](CC(C)C)C(N)=O)C1CCCCC1) [nPDM-77] | ≥ 40 % inhibition | – |
| H-WYIRWIK[Chg]QIWSKLRL-NH2 (SMILES CC[C@H](C)[C@H](NC(=O)[C@H](CCC(N)=O)NC(=O)[C@@H](NC(=O)[C@H](CCCCN)NC(=O)[C@@H](NC(=O)[C@H](Cc1c[nH]c2ccccc12)NC(=O)[C@H](CCCNC(=N)N)NC(=O)[C@@H](NC(=O)[C@H](Cc1ccc(O)cc1)NC(=O)[C@@H](N)Cc1c[nH]c2ccccc12)[C@@H](C)CC)[C@@H](C)CC)C1CCCCC1)C(=O)N[C@@H](Cc1c[nH]c2ccccc12)C(=O)N[C@@H](CO)C(=O)N[C@@H](CCCCN)C(=O)N[C@@H](CC(C)C)C(=O)N[C@@H](CCCNC(=N)N)C(=O)N[C@@H](CC(C)C)C(N)=O) [nPDM-64] | ≥ 40 % inhibition | ≥ 40 % inhibition |
| H-WYIRWIK[Chg]QIWSR[Chg]RL-NH2 (SMILES CC[C@H](C)[C@H](NC(=O)[C@H](CCC(N)=O)NC(=O)[C@@H](NC(=O)[C@H](CCCCN)NC(=O)[C@@H](NC(=O)[C@H](Cc1c[nH]c2ccccc12)NC(=O)[C@H](CCCNC(=N)N)NC(=O)[C@@H](NC(=O)[C@H](Cc1ccc(O)cc1)NC(=O)[C@@H](N)Cc1c[nH]c2ccccc12)[C@@H](C)CC)[C@@H](C)CC)C1CCCCC1)C(=O)N[C@@H](Cc1c[nH]c2ccccc12)C(=O)N[C@@H](CO)C(=O)N[C@@H](CCCNC(=N)N)C(=O)N[C@H](C(=O)N[C@@H](CCCNC(=N)N)C(=O)N[C@@H](CC(C)C)C(N)=O)C1CCCCC1) [nPDM-70] | ≥ 40 % inhibition | – |
| H-WYIRWIKIQIWSK[Chg]RL-NH2 (SMILES CC[C@H](C)[C@H](NC(=O)[C@H](CCC(N)=O)NC(=O)[C@@H](NC(=O)[C@H](CCCCN)NC(=O)[C@@H](NC(=O)[C@H](Cc1c[nH]c2ccccc12)NC(=O)[C@H](CCCNC(=N)N)NC(=O)[C@@H](NC(=O)[C@H](Cc1ccc(O)cc1)NC(=O)[C@@H](N)Cc1c[nH]c2ccccc12)[C@@H](C)CC)[C@@H](C)CC)[C@@H](C)CC)C(=O)N[C@@H](Cc1c[nH]c2ccccc12)C(=O)N[C@@H](CO)C(=O)N[C@@H](CCCCN)C(=O)N[C@H](C(=O)N[C@@H](CCCNC(=N)N)C(=O)N[C@@H](CC(C)C)C(N)=O)C1CCCCC1) [nPDM-65] | ≥ 40 % inhibition | ≥ 40 % inhibition |
| H-WYIRWIR[Chg]QIWSR[Chg]RL-NH2 (SMILES CC[C@H](C)[C@H](NC(=O)[C@H](CCC(N)=O)NC(=O)[C@@H](NC(=O)[C@H](CCCNC(=N)N)NC(=O)[C@@H](NC(=O)[C@H](Cc1c[nH]c2ccccc12)NC(=O)[C@H](CCCNC(=N)N)NC(=O)[C@@H](NC(=O)[C@H](Cc1ccc(O)cc1)NC(=O)[C@@H](N)Cc1c[nH]c2ccccc12)[C@@H](C)CC)[C@@H](C)CC)C1CCCCC1)C(=O)N[C@@H](Cc1c[nH]c2ccccc12)C(=O)N[C@@H](CO)C(=O)N[C@@H](CCCNC(=N)N)C(=O)N[C@H](C(=O)N[C@@H](CCCNC(=N)N)C(=O)N[C@@H](CC(C)C)C(N)=O)C1CCCCC1) [nPDM-72] | ≥ 40 % inhibition | – |
| H-WYIRWIR[Chg]QIWSK[Chg]RL-NH2 (SMILES CC[C@H](C)[C@H](NC(=O)[C@H](CCC(N)=O)NC(=O)[C@@H](NC(=O)[C@H](CCCNC(=N)N)NC(=O)[C@@H](NC(=O)[C@H](Cc1c[nH]c2ccccc12)NC(=O)[C@H](CCCNC(=N)N)NC(=O)[C@@H](NC(=O)[C@H](Cc1ccc(O)cc1)NC(=O)[C@@H](N)Cc1c[nH]c2ccccc12)[C@@H](C)CC)[C@@H](C)CC)C1CCCCC1)C(=O)N[C@@H](Cc1c[nH]c2ccccc12)C(=O)N[C@@H](CO)C(=O)N[C@@H](CCCCN)C(=O)N[C@H](C(=O)N[C@@H](CCCNC(=N)N)C(=O)N[C@@H](CC(C)C)C(N)=O)C1CCCCC1) [nPDM-71] | ≥ 40 % inhibition | – |
| H-YYIR[2Nal]IKIQIWSKLRL-NH2 (SMILES CC[C@H](C)[C@H](NC(=O)[C@H](CCC(N)=O)NC(=O)[C@@H](NC(=O)[C@H](CCCCN)NC(=O)[C@@H](NC(=O)[C@H](Cc1ccc2ccccc2c1)NC(=O)[C@H](CCCNC(=N)N)NC(=O)[C@@H](NC(=O)[C@H](Cc1ccc(O)cc1)NC(=O)[C@@H](N)Cc1ccc(O)cc1)[C@@H](C)CC)[C@@H](C)CC)[C@@H](C)CC)C(=O)N[C@@H](Cc1c[nH]c2ccccc12)C(=O)N[C@@H](CO)C(=O)N[C@@H](CCCCN)C(=O)N[C@@H](CC(C)C)C(=O)N[C@@H](CCCNC(=N)N)C(=O)N[C@@H](CC(C)C)C(N)=O) [nPDM-69] | ≥ 40 % inhibition | ≥ 40 % inhibition |
| H-WYIRWIR[Chg]QIWPR[Chg]RL-NH2 (SMILES CC[C@H](C)[C@H](NC(=O)[C@H](Cc1ccc(O)cc1)NC(=O)[C@@H](N)Cc1c[nH]c2ccccc12)C(=O)N[C@@H](CCCNC(=N)N)C(=O)N[C@@H](Cc1c[nH]c2ccccc12)C(=O)N[C@H](C(=O)N[C@@H](CCCNC(=N)N)C(=O)N[C@H](C(=O)N[C@@H](CCC(N)=O)C(=O)N[C@H](C(=O)N[C@@H](Cc1c[nH]c2ccccc12)C(=O)N1CCC[C@H]1C(=O)N[C@@H](CCCNC(=N)N)C(=O)N[C@H](C(=O)N[C@@H](CCCNC(=N)N)C(=O)N[C@@H](CC(C)C)C(N)=O)C1CCCCC1)[C@@H](C)CC)C1CCCCC1)[C@@H](C)CC) [nPDM-75] | ≥ 40 % inhibition | – |
| H-WYFRWIKIQIWSKLRL-NH2 [nPDM-67] | – | ≥ 40 % inhibition |
